Paper doi:10.1101/2024.09.19.614007 (bioRxiv, 2024)

Target: the molecule itself
Experiment: cryo-EM structure

B1: Escherichia coli glutamate kinase (enzyme, UniProt P0A7B5 1-367, looked up)
chain: MSDSQTLVVKLGTSVLTGGSRRLNRAHIVELVRQCAQLHAAGHRIVIVTSGAIAAGREHLGYPELPATIASKQLLAAVGQSRLIQLWEQLFSIYGIHVGQMLLTRADMEDRERFLNARDTLRALLDNNIVPVINENDAVATAEIKVGDNDNLSALAAILAGADKLLLLTDQKGLYTADPRSNPQAELIKDVYGIDDALRAIAGDSVSGLGTGGMSTKLQAADVACRAGIDTIIAAGSKPGVIGDVMEGISVGTLFHAQATPLENRKRWIFGAPPAGEITVDEGATAAILERGSSLLPKGIKSVTGNFSRGEVIRICNLEGRDIAHGVSRYNSDALRRIAGHHSQEIDAILGYEYGPVAVHRDDMITR
- stoichiometry N: 4
